Data on one substance can be found in publication doi:10.1101/2024.07.16.603716.

The target of the assay is VisA (SGO_2004) region containing its 7 G5 domains, residues 138-698, with a C-terminal His-tag (Streptococcus gordonii DL1). The assay can be described thus: denaturing western blot. (In general: In western blotting, separated proteins are transferred to a membrane and probed.)

Broadly, the stoichiometry N is the number of molecules, sites or subunits per partner or assembly. Regarding “VisA (SGO_2004) region containing its 7 G5 domains, residues 138-698, with a C-terminal His-tag (domain or fragment)”, the stoichiometry N worked out at 2.
